# “Also recorded” adds a separate entry of the source.
# Assays:
# [1] = system: antral smooth muscle; experiment: Force of antral smooth muscle ring contraction; design: species or system mouse; conditions: addition of rMfge8
# [2] = system: AKT; experiment: Western blot, AKT phosphorylation in HepG2 cells; format: cell-based, human
# Protocol: (§1) Following tissue preparation and SDS-PAGE, membranes were incubated with a polyclonal antibody against Akt (Cell Signaling Technology), or Rictor (Cell Signaling); Anti-PGC1 alpha antibody (abcam); a monoclonal antibody against Phospho-Akt Ser473 (Cell Signaling), Phospho-Rictor Thr1135 (Cell Signaling), GAPDH (Cell Signaling), or Mfge8 (R&D Systems). For evaluation of total AKT and total Rictor, membranes that been blotted for phospho-AKT and phospho-Rictor were stripped and reprobed. Plasma membrane and post-plasma membrane fractions were isolated as previously described (Nishiumi, S. & Ashida, H., Biosci Biotechnol Biochem 71, 2343-2346 (2007)).
# [3] = system: Rictor at threonine 1135; experiment: Western blot, Rictor phosphorylation in 3T3-L1 adipocytes; format: cell-based, mouse
# Protocol: as §1
# [4] = Blood glucose after IP insulin injection; format: in vivo, mouse; conditions: mice, rMfge8 co-administered with insulin, antibodies as pretreatment 15 min before insulin
# Protocol: Mice were fasted for 4 hours after which they were injected with 1.5 U/kg of insulin IP. Blood was collected from the tail vein immediately before injection and then again after 15, 30, 60, and 90 minutes for evaluation of blood glucose.
# In experiments using RGE or Mfge8 construct: mice received 50 μg/kg body weight of recombinant protein. In experiments using function-blocking antibodies: 6-8 week-old mice were fasted for 4 hours and then each mouse received 0.5 μg antibody (integrins αv (clone RMV-7) and β5 (clone ALULA)) per gram body weight in total volume of 200 μl, 15 minutes later each mouse received an insulin injection (1.5 U/kg, intraperitoneal injection (IP)). Blood glucose levels were measured by sampling from the tail vein of mice from 15 minutes after insulin administered.
# [5] = system: Rictor; experiment: Western blot, Rictor phosphorylation in HepG2 cells; format: cell-based, human
# Protocol: as §1
# [6] = system: 3T3-L1 adipocytes; experiment: Triglyceride content of 3T3-L1 adipocytes; format: cell-based, mouse; conditions: 3T3-L1 cells; 2, 4, 6, and 8 days after treatment; 10 μg/ml
# Protocol: 3T3-L1 (Zen-Bio) fibroblasts were differentiated into adipocytes as described previously (Liao, J. et al., J Lipid Res 46, 597-602 (2005)). Briefly, 3T3-L1 fibroblasts were cultured to confluence on 10 cm tissue culture plates or in 6-well tissue culture dishes in DMEM supplemented with 10% FBS and 25 mM HEPES (normal medium). 2 days after reaching confluence, media was change and 3-isobutyl-1methylxanthine (Calbiochem), dexamethasone (Sigma), and insulin (Sigma) were added to the normal medium at concentrations of 0.5 mM, 1 μM, and 5 μg/mL, respectively, to induce adipocyte differentiation. After 2 days (and every 2 days thereafter), media was replaced with normal medium supplemented with 5 μg/mL insulin. Cells were harvested for use 6-10 days after differentiation. The human hepatocellular carcinoma cell line HepG2 was a generous gift of Dr. Ethan Weiss. Cells were propagated in Eagle's MEM supplemented with 10% fetal bovine serum.
# [7] = Olive oil gavage, serum triglycerides; format: in vivo, mouse
# Protocol: 6-8 week-old mice were fasted for 4 hours and then gavaged with 15 μL olive oil per gram body weight. Mice had access to water but not food for the remainder of the experiment. In the experiments in FIGS. 3C and 3F, 50 μg/kg body weight of recombinant protein was mixed into olive oil and administered immediately to mice by gavage. In blocking antibody experiments, integrins αv (clone RMV-7) and 05 (clone ALULA) were administered by gavaging mice with 100 μL water containing 0.5 μg antibody per gram body weight 30 minutes before olive oil gavage. Triglyceride content of serum was assayed using a commercially available kit (Sigma-Aldrich) and fatty acid concentrations were quantified by Wako (Rabot, S. et al., FASEB J 24, 4948-4959 (2010)).
# [8] = system: CD36; experiment: Plasma membrane CD36 expression in primary cells; format: cell-based, mouse; conditions: primary Mfge8−/− adipocytes, hepatocytes, and enterocytes; to WT levels
# Protocol: as §1
# [9] = system: 3T3-L1 adipocytes; experiment: Glucose uptake assay (2-NBDG) in 3T3-L1 adipocytes; format: cell-based, mouse
# Protocol: Uptake of […] by primary cells and cell lines was assessed using the fluorescent D-glucose analog 2-[N-(7-nitrobenz-2-oxa-1,3-diazol-4-yl)amino]-2-deoxy-D-glucose (2-NBDG) (Invitrogen). 2-NBDG has been successfully used as an alternative to 2-deoxyglucose in the measurement of glucose uptake in multiple cell types. Cells were plated in triplicate in 96-well plates at a concentration of 25,000 cells per well in 100 μl of DMEM/10% FCS. Plates were centrifuged at 1000 rpm for 4 minutes and incubated at 37° C. for 4-5 hours. Cells were then serum deprived for 1 hour before treatment with recombinant proteins for 20 minutes followed by the addition of 2-NBDG (100 μM) for 10 min at 37° C. in a humidified atmosphere of 5% CO2. Reaction was stopped by adding a twofold volume of ice-cold PBS and the wells were washed again with ice-cold PBS three times. The fluorescent signal before (autofluorescence) and after adding 100 μM 2-NBDG was measured using fluorescent plate reader at 37° C. (Molecular Device using the 485 nmex and 520 nmemiss filter set). The net increase in fluorescence was normalized to the lowest signal (0 cells/well). […]
# [10] = system: AKT; experiment: Western blot of antral tissue, AKT phosphorylation; design: species or system mouse; conditions: antral tissue treated for 30 minutes
# Protocol: In FIG. 14A, the antral rings were treated for 15 min with PI3K inhibitor wortmannin (Wort.100 nm) followed by assessment of contractile force in response to MCh. N=3-4. ***P<0.0001. […] Western blot of antral tissue were treated for 30 minutes with or without rMfge8. […] Western blot of antrum were treated for 30 minutes with wortmannin (100 ng/ml) or Mfge8 and then with MCh for 15 minutes prior to quantifying active RhoA using a GST pull-down. […] PTEN activity assay measured the conversion of PIP3 to PIP2 in freshly isolated antrum with and without the rMfge8 or RGE construct (10 μg/ml) n=3-5. *P<0.05, **P<0.01, ***P<0.001.
# [11] = system: AKT at serine 473; experiment: Western blot, AKT phosphorylation in 3T3-L1 cells; format: cell-based, mouse
# Protocol: as §1
molecule,measurement,setting,value
"rMfge8: recombinant Milk Fat Globule Epidermal Growth Factor 8, an integrin ligand, expressed in High 5 cells (protein) ASGDFCDSSLCLNGGTCLTGQDNDIYCLCPEGFTGLVCNETERGPCSPNPCYNDAKCLVTLDTQRGDIFTEYICQCPVGYSGIHCETETNYYNLDGEYMFTTAVPNTAVPTPAPTPDLSNNLASRCSTQLGMEGGAIADSQISASSVYMGFMGLQRWGPELARLYRTGIVNAWTASNYDSKPWIQVNLLRKMRVSGVMTQGASRAGRAEYLKTFKVAYSLDGRKFEFIQDESGGDKEFLGNLDNNSLKVNMFNPTLEAQYIKLYPVSCHRGCTLRFELLGCELHGCSEPLGLKNNTIPDSQMSASSSYKTWNLRAFGWYPHLGRLDNQGKINAWTAQSNSAKEWLQVDLGTQRQVTGIITQGARDFGHIQYVASYKVAHSDDGVQWTVYEEQGSSKVFQGNLDNNSHKKNIFEKPFMARYVRVLPVSWHNRITLRLELLGC",smooth muscle contraction of stomach strips from Mfge8 KO mice,[1],rescued
same,phosphorylation of AKT,[2],induced
same,phosphorylation of Rictor at threonine 1135,[3],phosphorylated
same,serum glucose levels after insulin injection as compared with insulin injection alone,[4],significantly higher
same,phosphorylation of Rictor,[5],induced
same,triglyceride content,[6],significantly greater
same,serum triglyceride levels after olive oil gavage,"[7]; Mfge8−/− mice, 50 μg/kg recombinant protein mixed into olive oil",significantly raised
same,WT serum triglyceride levels after olive oil gavage,"[7]; WT mice, recombinant protein mixed into olive oil",significantly increased
same,membrane expression of CD36,[8],increased
same,effect of insulin on glucose uptake,[9]; insulin 1 μM,significantly inhibited
same,baseline glucose uptake,[9]; without insulin,no difference; also recorded: no effect
same,AKT phosphorylation in antral tissue,[10],reduces
same,phosphorylation of AKT at serine 473,[11],induced

# Source: US10005838B2, “Milk fat globule epidermal growth factor 8 regulates fatty acid uptake” (REGENTS OF THE UNIVERSITY OF CALIFORNIA, priority 2013, dated 2018)
